Like-named read-outs stand apart in the source and are kept apart here.
Tests used:
[1] = tested on: GST-dMiroΔTM fusion protein (amino acids 1-634 of the full-length dMiro protein, transmembrane domain deleted) [GST: P08515]
[2] = target: GST-dMiroΔTM fusion protein (amino acids 1-634 of the full-length dMiro protein, transmembrane domain deleted) [GST: P08515]; remark: listed apart in the source

Molecule: mammalian PINK1 protein affinity purified from HEK293 cells by immunoprecipitation
- in vitro kinase assay [1]: also failed to phosphorylate GST-dMiroΔTM in these assays

B1: 2xGST-dPINK1 fusion protein with GST fused at both the N- and C-terminus of dPINK1 (protein)
chain: KEDELEGVCWEIREAASRLQNAWNHDEISDTLDSKFTIDDLEIGPPIAKGCAAVVYAADFKKDVASDGASLHTDAQPQATPAFAPNSWSTHEMMSPLQNMSRFVHNFGGSVDNVFHYSQPSAASDFVGAQSREQDQRHHEQQQHQNQEQEQHQNQEPSSSAFNVTSPANSNINSSVDSYPLALKMMFNYDIQSNALSILRAMYKETVPARQRGMNEAADEWERLLQNQTVHLPRHPNIVCMFGFFCDEVRNFPDGHLLYPVAQPQRINPQGYGRNMSLYLLMKRYDHSLRGLLDSQDLSTRNRILLLAQMLEAVNHLSRHGVAHRDLKSDNVLIELQDDAAPVLVLSDFGCCLADKVHGLRLPYVSHDVDKGGNAALMAPEIFNTMPGPFAVLNYGKADLWACGALAYEIFGNRNPFYSSSGGMARERGEMTLSLRNSDYRQDQLPPMSDACPPLLQQLVYNILNPNPSKRVSPDIAANVVQLFLWAPSNWLKAGGMPNSPEILQWLLSLTTKIMCEGRPQMGAGLMPVASCGNRRAYVEYLLICSFLARARLRRIRGALNWIQNVVA
- in vitro kinase assay (P32 autoradiography) [2]: failed to show phosphorylation of GST-dMiroΔTM

B2: Drosophila PINK1 protein affinity purified from HEK293 cells by immunoprecipitation (protein)
chain: MSVRLLTVRLIKHGRYILRSYCKRDIHANILDQNQLKTRSKRGFPLPSTAANVLRTTPQQAAKSVVNVVPRTINSPSGSPFNGSGSSPTSSSGIFRVGQHARKLFIDNILSRVTTTYSEDLRQRATRKLFFGDSAPFFALIGVSLASGSGVLSKEDELEGVCWEIREAASRLQNAWNHDEISDTLDSKFTIDDLEIGPPIAKGCAAVVYAADFKKDVASDGASLHTDAQPQATPAFAPNSWSTHEMMSPLQNMSRFVHNFGGSVDNVFHYSQPSAASDFVGAQSREQDQRHHEQQQHQNQEQEQHQNQEPSSSAFNVTSPANSNINSSVDSYPLALKMMFNYDIQSNALSILRAMYKETVPARQRGMNEAADEWERLLQNQTVHLPRHPNIVCMFGFFCDEVRNFPDGHLLYPVAQPQRINPQGYGRNMSLYLLMKRYDHSLRGLLDSQDLSTRNRILLLAQMLEAVNHLSRHGVAHRDLKSDNVLIELQDDAAPVLVLSDFGCCLADKVHGLRLPYVSHDVDKGGNAALMAPEIFNTMPGPFAVLNYGKADLWACGALAYEIFGNRNPFYSSSGGMARERGEMTLSLRNSDYRQDQLPPMSDACPPLLQQLVYNILNPNPSKRVSPDIAANVVQLFLWAPSNWLKAGGMPNSPEILQWLLSLTTKIMCEGRPQMGAGLMPVASCGNRRAYVEYLLICSFLARARLRRIRGALNWIQNVVA
- in vitro kinase assay [2]: also failed to phosphorylate GST-dMiroΔTM in these assays

Reference: US20140256786
